{"source": "paper PMC5643527", "about": "“In vivo imaging of lung inflammation with neutrophil-specific ^68Ga nano-radiotracer” (Scientific Reports, 2017)", "origin": "cited, not measured here", "key": {"[1]": {"target": "formyl peptide receptor 1 (Homo sapiens) (UniProt P21462)", "sequence (P21462 whole entry)": "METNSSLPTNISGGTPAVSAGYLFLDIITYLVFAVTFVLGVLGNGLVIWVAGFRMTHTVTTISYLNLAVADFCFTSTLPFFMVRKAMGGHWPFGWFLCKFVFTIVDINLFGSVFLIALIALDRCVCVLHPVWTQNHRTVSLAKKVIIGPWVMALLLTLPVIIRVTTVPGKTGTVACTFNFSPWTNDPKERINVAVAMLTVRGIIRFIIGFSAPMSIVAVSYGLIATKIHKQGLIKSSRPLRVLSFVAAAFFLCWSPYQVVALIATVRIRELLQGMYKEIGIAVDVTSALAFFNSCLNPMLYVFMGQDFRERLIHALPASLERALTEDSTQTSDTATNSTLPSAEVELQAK"}, "[2]": {"target": "formyl peptide receptor 1 (FPR-1)", "details": "antagonist of FPR-1; read-out: binding affinity (Kd)", "description": "A particularly interesting compound is the peptide N-cinnamoyl-F-(D)L-F-(D)L-F (cFLFLF), an antagonist of formyl peptide receptor 1 (FPR-1). The very high binding affinity of cFLFLF (Kd = 2 nM) is the main reason for its use in neutrophil-specific probes for PET and optical fluorescence[7],[8],[10]. However, the high hydrophobicity of cFLFLF produces very poor target-to-background ratios. This serious limitation is the reason why to date the amount of radiotracer reaching the inflammation site is below 1% (expressed as the % of injected dose per mass of the organ)[7],[10]. || Inflammation is a central feature of many clinical conditions and can be broadly classified as acute or chronic. Acute inflammation typically occurs over a timescale of minutes to hours, whereas chronic inflammation can develop over several days to months. The predominant cell type in acute inflammation is the neutrophil, whereas chronic inflammation features a greater variety of cell types."}}, "data": [{"substance": "cFLFLF (N-cinnamoyl-F-(D)L-F-(D)L-F)", "values": [{"measurement": "Kd", "setting": "[1]", "value": 2, "unit": "nM"}]}, {"substance": "N-cinnamoyl-F-(D)L-F-(D)L-F [cFLFLF]", "values": [{"measurement": "Kd", "setting": "[2]", "value": 2, "unit": "nM"}]}]}
